The results in this text go back to article PMC4756830 (Nucleic Acids Research, 2015).

The data set deals with the molecule itself. The data set can be described thus: SEC-MALS.

As a reminder, the stoichiometry N is a count of units in the complex or per binding partner.

B1: GabR from Bacillus subtilis with C-terminal His6-tag (natural protein)
chain: MDITITLDRSEQADYIYQQIYQKLKKEILSRNLLPHSKVPSKRELAENLKVSVNSVNSAYQQLLAEGYLYAIERKGFFVEELDMFSAEEHPPFALPDDLKEIHIDQSDWISFSHMSSDTDHFPIKSWFRCEQKAASRSYRTLGDMSHPQGIYEVRAAITRLISLTRGVKCRPEQMIIGAGTQVLMQLLTELLPKEAVYAMEEPGYRRMYQLLKNAGKQVKTIMLDEKGMSIAEITRQQPDVLVTTPSHQFPSGTIMPVSRRIQLLNWAAEEPRRYIIEDDYDSEFTYDVDSIPALQSLDRFQNVIYMGTFSKSLLPGLRISYMVLPPELLRAYKQRGYDLQTCSSLTQLTLQEFIESGEYQKHIKKMKQHYKEKRERLITALEAEFSGEVTVKGANAGLHFVTEFDTRRTEQDILSHAAGLQLEIFGMSRFNLKENKRQTGRPALIIGFARLKEEDIQEGVQRLFKAVYGHKKIPVTGD
B1: the “stoichiometry N” value amounted to 2.
